For this assay, the target named is metastin receptor (OT7T175) stably expressed on CHO/dhfr- cells (human or rat, not given). As to the kind of experiment: cell-based or functional assay.

[ ]: non-standard residue; d: D form. Arg(Me) = CNC(=N)NCCC[C@H](N)C(=O)O; Dap(CONH2) = NC(=O)NC[C@H](N)C(=O)O; Ala(cPr) = N[C@@H](CC1CC1)C(=O)O; Hyp = O=C(O)[C@@H]1C[C@@H](O)CN1; Aad = N[C@@H](CCCC(=O)O)C(=O)O; Cha = N[C@@H](CC1CCCCC1)C(=O)O; Cit = NC(=O)NCCC[C@H](N)C(=O)O; Abu = CC[C@H](N)C(=O)O; Aib = CC(C)(N)C(=O)O

Regarding Ac-[dY]E[Dap(CONH2)]TFGL[Arg(Me)]W-NH2 (also: Gly6-Leu7 -CONH- replaced by (E) type alkene) [des(1)-Ac-[D-Tyr2,Glu3,Alb4,Thr5,Gly7Ψ((E)CH═CH)Leu8,Arg(Me)9,Trp10]MS10], the Specific Activity (EC50 of test compound based on EC50 of Metastin (45-54)); agonist activity, intracellular calcium ion level, FLIPR (ratio to Metastin (45-54)) is 0.5.
Turning to Ac-[dY]DNT[Cha]G[Ala(cPr)][Arg(Me)]W-NH2 [des(1)-Ac-[D-Tyr2,Asp3,Thr5,Cha6,Ala(cPr)8,Arg(Me)9,Trp10]MS10], the Specific Activity (EC50 of test compound based on EC50 of Metastin (45-54)); agonist activity, intracellular calcium ion level, FLIPR (ratio to Metastin (45-54)) was determined as 2.5.
Ac-[dY]E[Dap(CONH2)]T[Cha]GL[Arg(Me)]W-NH2 (also: Gly6-Leu7 -CONH- replaced by (E) type alkene) [des(1)-Ac-[D-Tyr2,Glu3,Alb4,Thr5,Cha6,Gly7Ψ((E)CH═CH)Leu8,Arg(Me)9,Trp10]MS10]: the Specific Activity (EC50 of test compound based on EC50 of Metastin (45-54)); agonist activity, intracellular calcium ion level, FLIPR (ratio to Metastin (45-54)) was 0.5.
Next, Ac-[dY][Hyp][Dap(CONH2)]TFGL[Arg(Me)]W-NH2 (also: Gly6-Leu7 -CONH- replaced by (E)-CH=CH-) [des(1)-Ac-[D-Tyr2,Hyp3,Alb4,Thr5,Gly7Ψ((E)CH═CH)Leu8,Arg(Me)9,Trp10]MS10]: 0.6.
For Ac-[dY][Hyp][Cit]T[Cha]GL[Arg(Me)]W-NH2 (also: Gly6-Leu7 -CONH- replaced by (E)-CH=CH-) [des(1)-Ac-[D-Tyr2,Hyp3,Cit4,Thr5,Cha6,Gly7Ψ((E)CH═CH)Leu8,Arg(Me)9,Trp10]MS10], the Specific Activity (EC50 of test compound based on EC50 of Metastin (45-54)); agonist activity, intracellular calcium ion level, FLIPR (ratio to Metastin (45-54)) came to 0.9.
Next, Ac-[dY][Hyp]QT[Cha]GL[Arg(Me)]W-NH2 (also: Gly6-Leu7 -CONH- replaced by (E)-CH=CH-) [des(1)-Ac-[D-Tyr2,Hyp3,Gln4,Thr5,Cha6,Gly7Ψ((E)CH═CH)Leu8,Arg(Me)9,Trp10]MS10]: 1.4; Ac-[dY][Hyp]NTF[Abu]L[Arg(Me)]W-NH2 [des(1)-Ac-[D-Tyr2,Hyp3,Thr5,Abu7,Arg(Me)9,Trp10]MS10]: 1; Ac-[dY][Hyp]ET[Cha]GL[Arg(Me)]W-NH2 (also: Gly6-Leu7 -CONH- replaced by (E)-CH=CH-) [des(1)-Ac-[D-Tyr2,Hyp3,Glu4,Thr5,Cha6,Gly7Ψ((E)CH═CH)Leu8,Arg(Me)9,Trp10]MS10]: 4.6.
Consider Ac-[dY][Hyp]NTF[Aib]L[Arg(Me)]W-NH2 [des(1)-Ac-[D-Tyr2,Hyp3,Thr5,Aib7,Arg(Me)9,Trp10]MS10], for which the Specific Activity (EC50 of test compound based on EC50 of Metastin (45-54)); agonist activity, intracellular calcium ion level, FLIPR (ratio to Metastin (45-54)) is 1.5.
For the molecule Ac-[dY][Aib]NT[Cha]G[Ala(cPr)][Arg(Me)]W-NH2 [des(1)-Ac-[D-Tyr2,Aib3,Thr5,Cha6,Ala(cPr)8,Arg(Me)9,Trp10]MS10], the Specific Activity (EC50 of test compound based on EC50 of Metastin (45-54)); agonist activity, intracellular calcium ion level, FLIPR (ratio to Metastin (45-54)) stood at 0.6.
Take Ac-[dY]KNT[Cha]G[Ala(cPr)][Arg(Me)]W-NH2 (also: classed as cyclised or stapled) [des(1)-Ac-[D-Tyr2,Lys3,Thr5,Cha6,Ala(cPr)8,Arg(Me)9,Trp10]MS10]: the Specific Activity (EC50 of test compound based on EC50 of Metastin (45-54)); agonist activity, intracellular calcium ion level, FLIPR (ratio to Metastin (45-54)) stood at 0.7.
For Ac-[dY]ENTFGL[Arg(Me)]W-NH2 (also: Gly6-Leu7 -CONH- replaced by (E) type alkene) [des(1)-Ac-[D-Tyr2,Glu3,Thr5,Gly7Ψ((E)CH═CH)Leu8,Arg(Me)9,Trp10]MS10] the value was 0.6.
Ac-[dY][Aad]NT[Cha]G[Ala(cPr)][Arg(Me)]W-NH2 [des(1)-Ac-[D-Tyr2,Aad3,Thr5,Cha6,Ala(cPr)8,Arg(Me)9,Trp10]MS10]: the Specific Activity (EC50 of test compound based on EC50 of Metastin (45-54)); agonist activity, intracellular calcium ion level, FLIPR (ratio to Metastin (45-54)) is 1.1.
Regarding Ac-[dY][Hyp]NTFG[Ala(cPr)][Arg(Me)]W-NH2 [des(1)-Ac-[D-Tyr2,Hyp3,Thr5,Ala(cPr)8,Arg(Me)9,Trp10]MS10], the Specific Activity (EC50 of test compound based on EC50 of Metastin (45-54)); agonist activity, intracellular calcium ion level, FLIPR (ratio to Metastin (45-54)) is 0.8.

The values above are taken from patent US7786083B2, “Metastin derivatives and use thereof” (Takeda Pharmaceutical Company Limited, priority 2006, dated 2010).
